Data taken from PMC5629633.

Tested on: NC(=O)CC[C@H](N)C(=O)O
Assay: purified protein
Conditions: pH 8.0, 30 °C, 11 mM MgCl2, co-substrate ATP

Cj1418 (L-glutamine kinase) (Campylobacter jejuni subsp. jejuni NCTC 11168 = ATCC 700819)
Km: 640 ± 60 µM
